± gives the standard error. For part of these data: This sample holds only a part of the variants without activity.
B1: glmS ribozyme (parent)
chain: AUAAAAGCGCCAGAACUACAGAAAUGUAGUUGACGAGGAGGAGGUUUAUCGAAUUUUCGGCGGAUGCCUCCAAA

Legend:
Details in all cases: with glucosamine-6-phosphate
glucosamine-6-phosphate [1] = variants of: B1; experiment: kcat; higher = faster cleavage; RNA array
In short: (§1)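 Tiles bearing barcoded ribozyme variants, transcribed in situ by E. coli RNA polymerase on sequenced MiSeq chips, were imaged over ~14 h at 37 °C using a hybridised Cy3 probe. Glucosamine-6-phosphate was supplied at 40 μM to 10 mM in HEPES/KCl/Mg(OAc)2 buffer. kobs came from one- or two-exponential decay fits to normalised per-tile medians, and weighted Michaelis–Menten fits then provided kcat and KM.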

glucosamine-6-phosphate [2] = variants of: B1; experiment: KM; higher = weaker cofactor use; RNA array
In short: as §1

glucosamine-6-phosphate [3] = variants of: B1; experiment: self-cleavage kobs at 40 uM GlcN6P; higher = faster cleavage; RNA array
In short: as §1

glucosamine-6-phosphate [4] = variants of: B1; experiment: self-cleavage kobs at 160 uM GlcN6P; higher = faster cleavage; RNA array
In short: as §1

glucosamine-6-phosphate [5] = variants of: B1; experiment: self-cleavage kobs at 640 uM GlcN6P; higher = faster cleavage; RNA array
In short: as §1

glucosamine-6-phosphate [6] = variants of: B1; experiment: self-cleavage kobs at 2500 uM GlcN6P; higher = faster cleavage; RNA array
In short: as §1

glucosamine-6-phosphate [7] = variants of: B1; experiment: self-cleavage kobs at 10000 uM GlcN6P; higher = faster cleavage; RNA array
In short: as §1

Row | Variant | kcat (glucosamine-6-phosphate [1]) [s⁻¹] | KM (glucosamine-6-phosphate [2]) [µM] | self-cleavage kobs at 40 uM GlcN6P (glucosamine-6-phosphate [3]) [s⁻¹] | self-cleavage kobs at 160 uM GlcN6P (glucosamine-6-phosphate [4]) [s⁻¹] | self-cleavage kobs at 640 uM GlcN6P (glucosamine-6-phosphate [5]) [s⁻¹] | self-cleavage kobs at 2500 uM GlcN6P (glucosamine-6-phosphate [6]) [s⁻¹] | self-cleavage kobs at 10000 uM GlcN6P (glucosamine-6-phosphate [7]) [s⁻¹]
1 | A14G U65G | 0.00446 ± 0.00028 | 3780 ± 310 | 4.37e-05 ± 6.7e-06 | 0.000193 ± 2.1e-05 | 0.000633 ± 5.3e-05 | 0.00182 ± 0.00016 | 0.00321 ± 0.00033
2 | A14C A36C | < 1e-05 |  | < 1e-05 | < 1e-05 |  |  | 
3 | A14U U31G A64G | 0.00476 ± 0.0018 |  | 6.69e-05 ± 1.5e-05 |  | 0.000996 ± 0.00037 | 0.00162 ± 0.00048 | 0.00468 ± 0.0012
4 | A14C | 0.0129 ± 0.0023 | 3460 ± 740 | 0.000163 ± 2.7e-06 | 0.000466 ± 1.5e-05 | 0.00185 ± 6.7e-05 | 0.00541 ± 0.00017 | 0.00971 ± 0.00024
5 | A14G | 0.0996 ± 0.0091 | 1720 ± 180 | 0.00231 ± 4.7e-05 | 0.00764 ± 0.00054 | 0.0249 ± 0.0012 | 0.0558 ± 0.0042 | 0.0902 ± 0.0048
6 | A14U | 0.0182 ± 0.0048 | 2730 ± 850 | 0.000298 ± 5.5e-06 | 0.00073 ± 3e-05 | 0.00328 ± 0.00015 | 0.00942 ± 0.00041 | 0.0143 ± 0.00047
7 | G13U C34U | < 1e-05 |  | < 1e-05 |  |  | < 1e-05 | 
8 | A14U A64U G66C | 1.84e-05 ± 4.5e-06 |  |  |  |  |  | 
9 | A14U C70A | 0.000118 ± 4.4e-06 | 568 ± 71 |  | 2.57e-05 ± 8.7e-06 | 6.15e-05 ± 8e-06 | 9.59e-05 ± 1e-05 | 0.000112 ± 1.1e-05
10 | A14U C70G | 0.000149 ± 3.1e-05 |  |  | 5.56e-05 ± 7.3e-06 | 8.73e-05 ± 9.3e-06 | 0.000147 ± 1.8e-05 | 
11 | A14C A42U | 3.4e-05 ± 1.6e-05 |  |  |  |  |  | 2.17e-05 ± 5.9e-06
12 | G13U C67A | 0.000419 ± 9e-05 | 2040 ± 670 |  | 3.99e-05 ± 9e-06 | 9.71e-05 ± 9.5e-06 | 0.000225 ± 2.3e-05 | 0.000504 ± 0.00015
13 | G13U C67G | < 1e-05 |  | < 1e-05 |  |  |  | 
14 | A14G A64G U65A | 0.00407 ± 0.0014 |  | 0.000284 ± 0.0001 | 0.000621 ± 0.00019 | 0.00307 ± 0.0012 | 0.00271 ± 0.0008 | 0.00718 ± 0.0031
15 | A14G A15G C50U C68U | 5.28e-05 ± 7.8e-06 |  |  |  | 7.36e-05 ± 2e-05 | 4.92e-05 ± 1.8e-05 | 4.76e-05 ± 1.2e-05
16 | G13U G29C | 0.000126 ± 2.5e-05 |  |  |  | 4.72e-05 ± 1.7e-05 | 0.00015 ± 2.3e-05 | 0.000107 ± 1.4e-05

Row | Variant | kcat (glucosamine-6-phosphate [1]) [s⁻¹] | KM (glucosamine-6-phosphate [2]) [µM] | self-cleavage kobs at 40 uM GlcN6P (glucosamine-6-phosphate [3]) [s⁻¹] | self-cleavage kobs at 160 uM GlcN6P (glucosamine-6-phosphate [4]) [s⁻¹] | self-cleavage kobs at 640 uM GlcN6P (glucosamine-6-phosphate [5]) [s⁻¹] | self-cleavage kobs at 2500 uM GlcN6P (glucosamine-6-phosphate [6]) [s⁻¹] | self-cleavage kobs at 10000 uM GlcN6P (glucosamine-6-phosphate [7]) [s⁻¹]
17 | A14C G29A | 0.000725 ± 5.3e-05 | 2290 ± 270 |  | 4.05e-05 ± 1.5e-05 | 0.000166 ± 2.4e-05 | 0.000389 ± 9.3e-05 | 0.00058 ± 9.2e-05
18 | G13U G29U U31C | 1.48e-05 ± 3.5e-06 |  | < 1e-05 |  |  |  | 
19 | A14G A48C | 0.00102 ± 4.5e-05 | 2630 ± 260 |  | 5.84e-05 ± 1.5e-05 | 0.000205 ± 8.1e-05 | 0.000509 ± 6.7e-05 | 0.000803 ± 7.7e-05
20 | G13U G37U | < 1e-05 |  |  |  | < 1e-05 |  | < 1e-05
21 | A14U C67U | 0.00362 ± 0.00099 | 2860 ± 930 | 6.23e-05 ± 7e-06 | 0.000181 ± 2e-05 | 0.000591 ± 7.1e-05 | 0.00164 ± 0.00034 | 0.0031 ± 0.00053
22 | A14U C67G | 0.000352 ± 8e-06 | 1670 ± 68 |  | 3.01e-05 ± 6.5e-06 | 9.71e-05 ± 6.9e-06 | 0.000215 ± 1.7e-05 | 0.000296 ± 2.9e-05
23 | A14G C61U | 3.27e-05 ± 1.8e-06 | 592 ± 240 |  |  |  | 2.91e-05 ± 9.3e-06 | 3.02e-05 ± 6.3e-06
24 | A14G A33G G37U | < 1e-05 |  | < 1e-05 | < 1e-05 |  |  | 
25 | A14C U69C | 0.00147 ± 0.00041 | 2100 ± 820 | 5.59e-05 ± 1.2e-05 | 9.64e-05 ± 1.4e-05 | 0.000344 ± 6.1e-05 | 0.000686 ± 0.00015 | 0.00131 ± 0.0002
26 | A14C U69A | 0.000125 ± 1.5e-05 | 380 ± 170 |  | 2.61e-05 ± 1.2e-05 | 9.86e-05 ± 1.9e-05 | 0.000115 ± 1.8e-05 | 0.00011 ± 1.8e-05
27 | G13U U54G C70G | 4.42e-05 ± 4.5e-06 |  |  |  | 5.17e-05 ± 2.4e-05 | 4.17e-05 ± 1.2e-05 | 4.21e-05 ± 1.5e-05
28 | G13U C70U | 0.00213 ± 0.00039 | 3200 ± 840 | 2.45e-05 ± 1e-05 | 0.000126 ± 2.3e-05 | 0.000329 ± 5.2e-05 | 0.000792 ± 0.00018 | 0.00172 ± 0.00026
29 | G13U C70A | 3.03e-05 ± 5.4e-06 |  |  |  | 3.7e-05 ± 1.1e-05 | 3.54e-05 ± 9.8e-06 | 2.01e-05 ± 1e-05
30 | A14C G32C | 0.000467 ± 2.4e-05 | 5350 ± 480 |  |  | 4.87e-05 ± 1.2e-05 | 0.000149 ± 2.1e-05 | 0.000304 ± 3.5e-05
31 | A14G G44U | 0.00141 ± 0.00018 | 4650 ± 840 |  | 4.99e-05 ± 2e-05 | 0.000163 ± 2.5e-05 | 0.000558 ± 0.0001 | 0.000923 ± 0.00019
